According to publication PMC8310366:

Key:
[1] = target: DENV NS1 S233A mutant (dengue virus serotype 2 (DENV-2, strain 16681)); experiment: SDS-PAGE under non-heated, non-reduced conditions with immunoblotting
[2] = target: Dengue virus serotype 2 nonstructural protein 1 (DENV NS1), wild type (dengue virus serotype 2 (DENV-2, strain 16681)); experiment: as above
[3] = target: Dengue virus serotype 2 nonstructural protein 1 (DENV NS1), wild type (dengue virus serotype 2 (DENV-2, strain 16681)); experiment: SDS-PAGE under non-heated, non-reduced conditions with Coomassie staining
[4] = target: DENV NS1 V6A mutant (dengue virus serotype 2 (DENV-2, strain 16681)); experiment: SDS-PAGE under non-heated, non-reduced conditions with immunoblotting
[5] = target: DENV NS1 T230A mutant (dengue virus serotype 2 (DENV-2, strain 16681)); experiment: as above
[6] = target: DENV NS1 T29A mutant (dengue virus serotype 2 (DENV-2, strain 16681)); experiment: as above

## DENV NS1 S233A mutant (natural protein)
[1]
  stoichiometry N: 2

## Dengue virus serotype 2 nonstructural protein 1 (DENV NS1), wild type (natural protein)
[2]
  stoichiometry N: 2
[3]
  stoichiometry N: 2

## DENV NS1 V6A mutant (natural protein)
[4]
  stoichiometry N: 2

## DENV NS1 T230A mutant (natural protein)
[5]
  stoichiometry N: 2

## DENV NS1 T29A mutant (natural protein)
[6]
  stoichiometry N: 2
